Assays:
[1] = biological target: T1, recombinant human TNF-α (Product 210-TA-050, R&D) (human, UniProt P01375 77-233); assay: competition ELISA: biotin-TNF-α (10 ng/ml) on coated P75 receptor-Fc, antibody titrated; experiment 3
T1 construct: Bought protein; Amine-coupled to the chip in SPR, biotin-labelled in the P75 ELISA, FITC-labelled in the U937 assay; also called rhTNF-α; Recombinant TNFα (R&D)
Protocol: (§1) 10 μg/ml of P75 receptor-Fc fusion protein (which was prepared according to the method described in Chinese Patent Application No. 01132074.5 entitled “Recombinant genes, fusion genes and products of the soluble fragment of Tumor Necrosis Factor Receptor” filed on Oct. 31, 2001) was used to coat ELIAS plates and reacted at 37° C. for 2 h; 3% BSA-PBS was used to block the plate wells and reacted overnight at 4° C. […] The diluted samples and control samples were added to washed ELIAS plates with 100 μl/well and reacted at 37° C. for 1 h; the ELIAS plates were washed; HRP-avidin (Zymed) was diluted at 1:1000 with PBS and added to the ELIAS plates with 100 μl/well and reacted at 37° C. for 1 h; the ELIAS plates were washed; equal volumes of A solution and B solution (Jingmei BioTech Co. Ltd.) of TMB substrate for HRP were mixed and added to the ELIAS plates with 100 μl/well and reacted at room temperature for 10 minutes in darkness; each well was added with 100 μl of 0.5M sulphuric acid to stop the reaction. Absorbance at […] was measured using microplate reader. The concentration of samples was used as x-coordinate and absorbance was used as y-coordinate.

[2] = biological target: T1, recombinant human TNF-α (Product …); assay: SPR, Biacore T100, TNFα amine-coupled to CM5 chip, antibody in flow
Protocol: After each examination, they were washed with 5 μl of 50 mM hydrochloric acid aqueous solution at a flow rate of 3 μl/min so as to wash away the residual antibodies from the immobilized ligands. The binding curves were subjected to nonlinear regression analysis using BIAevalution software (T100 evalution version 2.0, Biacore).

[3] = biological target: T1, recombinant human TNF-α (Product …); assay: flow cytometry competition: FITC-TNF-α (100 ng/ml) on U937 cells, antibody titrated; experiment 2
Protocol: (§2) U937 cells (ATCC CRL1593) were cultured in RPMI-1640 medium (GIBCO) containing 10% fetal bovine serum (JRH). […] The cells at logarithmic growth phase were counted and then centrifuged at 200 g for 5 min. Supernatant was removed and cell pellets were resuspended in PBS containing 1% fetal bovine serum. The cells were adjusted to a concentration 1×10⁶/ml, and then distributed into flow cytometry test tubes, with 100 μl/tube. […] The diluted samples and control samples were added into flow cytometry test tubes, with 100 μl/tube, and reacted at 4° C. for 1 hour in darkness; the cells were washed twice with PBS containing 1% fetal bovine serum, and centrifuged at 200 g for 5 min each time. Supernatant was removed and cell pellets were resuspended in 300 μl of PBS containing 1% fetal bovine serum. Flow cytometry was used to measure the fluorescence intensity of each tube. Sample concentration was plotted on the x-coordinate and […] was plotted on the y-coordinate.

[4] = biological target: T1, recombinant human TNF-α (Product …); assay: flow cytometry competition: FITC-TNF-α (100 ng/ml) on U937 cells, antibody titrated; experiment 1
Protocol: as §2

[5] = biological target: T1, recombinant human TNF-α (Product …); assay: flow cytometry competition: FITC-TNF-α (100 ng/ml) on U937 cells, antibody titrated; average of 3
Protocol: as §2

[6] = biological target: T1, recombinant human TNF-α (Product …); assay: competition ELISA: biotin-TNF-α (10 ng/ml) on coated P75 receptor-Fc, antibody titrated; experiment 1
Protocol: as §1

[7] = biological target: T1, recombinant human TNF-α (Product …); assay: competition ELISA: biotin-TNF-α (10 ng/ml) on coated P75 receptor-Fc, antibody titrated; average of 3
Protocol: as §1

[8] = biological target: T1, recombinant human TNF-α (Product …); assay: flow cytometry competition: FITC-TNF-α (100 ng/ml) on U937 cells, antibody titrated; experiment 3
Protocol: as §2

[9] = biological target: T1, recombinant human TNF-α (Product …); assay: competition ELISA: biotin-TNF-α (10 ng/ml) on coated P75 receptor-Fc, antibody titrated; experiment 2
Protocol: as §1

[10] = biological target: T1, recombinant human TNF-α (Product …); assay: cell-based or functional assay

T1 sequence (P01375 77-233 limits assumed): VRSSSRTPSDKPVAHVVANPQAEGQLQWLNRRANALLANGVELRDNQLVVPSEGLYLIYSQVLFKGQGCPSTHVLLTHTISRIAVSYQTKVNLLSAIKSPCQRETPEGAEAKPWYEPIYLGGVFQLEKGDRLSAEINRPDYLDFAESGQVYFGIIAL

IC50 [1]: 0.27 µg/mL | Kd [2]: 0.36 nM | koff [2]: 5.7e-05 s⁻¹ | kon [2]: 158000 M⁻¹ s⁻¹ | IC50 [3]: 1.03 µg/mL | IC50 [4]: 0.89 µg/mL | IC50 [5]: 0.96 µg/mL | IC50 [6]: 0.25 µg/mL | IC50 [7]: 0.28 µg/mL | IC50 [8]: 0.97 µg/mL | IC50 [9]: 0.31 µg/mL
B1: fully human anti-TNF-α monoclonal antibody 4H16 (antibody, human IgG1, kappa, V domains shown)
VH: QVTLRESGPALVKPTQTLTLTCTFSGFSLSTSGMCVSWIRQPPGKALEWLALIDWDDDKYYSTSLKTRLTISKDTSKNQVVLTMTNMDPVDTATYYCARILVDIVATITNDAFDVWGQGTMVTVSS
VL: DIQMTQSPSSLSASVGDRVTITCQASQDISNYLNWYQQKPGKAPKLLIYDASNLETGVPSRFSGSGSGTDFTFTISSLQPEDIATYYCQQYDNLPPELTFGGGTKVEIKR
notes: The genes carried a signal peptide at the 5' end; also called fully human antibody 4H16
IC50 of resistance to TNF-α-mediated killing of L929 cells (MTS), average [10]: 0.0572 µg/mL | IC50 of resistance to TNF-α-mediated killing of L929 cells (MTS), experiment 1 [10]: 0.0592 µg/mL | IC50 of resistance to TNF-α-mediated killing of L929 cells (MTS), experiment 2 [10]: 0.0459 µg/mL | IC50 of resistance to TNF-α-mediated killing of L929 cells (MTS), experiment 3 [10]: 0.0664 µg/mL

From patent publication US20120308575A1 (SHANGHAI BIOMABS PHARMACEUTICALS, published 2012)
